Results from the Immune Epitope Database (IEDB).

What was measured:
[1] = target: HLA-B*53:01; assay: IEDB peptide-MHC binding, purified MHC/competitive/radioactivity; filed as Kd, often an IC50 or EC50 that approximates it; ≥ and ≤ were set here for values at or beyond the usual limits of such assays
[2] = target: HLA-B*08:01; assay: as above
[3] = target: HLA-B*18:01; assay: IEDB peptide-MHC binding, purified MHC/direct/fluorescence; filed as Kd, often an IC50 or EC50 that approximates it; ≥ and ≤ were set here for values at or beyond the usual limits of such assays
[4] = target: HLA-B*40:01; assay: as above
[5] = target: HLA-A*30:01; assay: IEDB peptide-MHC binding, purified MHC/competitive/radioactivity; filed as Kd, often an IC50 or EC50 that approximates it; ≥ and ≤ were set here for values at or beyond the usual limits of such assays
[6] = target: HLA-A*01:01; assay: as above
[7] = target: HLA-A*30:02; assay: as above
[8] = target: HLA-A*29:02; assay: as above
[9] = target: HLA-A*26:01; assay: as above
[10] = target: HLA-A*32:01; assay: as above
[11] = target: HLA-B*44:02; assay: IEDB peptide-MHC binding, purified MHC/direct/fluorescence; filed as Kd, often an IC50 or EC50 that approximates it; ≥ and ≤ were set here for values at or beyond the usual limits of such assays; conditions: source organism: Influenza A virus (A/Duck/Shantou/2144/00(H9N2))
[12] = target: HLA-A*03:01; assay: IEDB peptide-MHC binding, purified MHC/competitive/radioactivity; filed as Kd, often an IC50 or EC50 that approximates it; ≥ and ≤ were set here for values at or beyond the usual limits of such assays; conditions: source organism: Dengue virus 2 Jamaica/1409/1983
[13] = target: HLA-A*11:01; assay: as above; conditions: source organism: Dengue virus 2 Jamaica/1409/1983
[14] = target: HLA-A*23:01; assay: as above
[15] = target: HLA-A*24:02; assay: as above
[16] = target: HLA-A*11:01; assay: IEDB peptide-MHC binding, purified MHC/direct/fluorescence; filed as Kd, often an IC50 or EC50 that approximates it; ≥ and ≤ were set here for values at or beyond the usual limits of such assays; conditions: source organism: SARS-CoV1
[17] = target: HLA-B*27:05; assay: as above; conditions: source organism: SARS-CoV1
[18] = target: HLA-B*08:01; assay: as above; conditions: source organism: SARS-CoV1
[19] = source organism: Dengue virus 1 Brazil/97-11/1997
[20] = source organism: Vaccinia virus WR
[21] = source organism: Orthohantavirus hantanense
[22] = source organism: Dengue virus 2 Jamaica/1409/1983
[23] = source organism: Mammarenavirus juninense
[24] = source organism: Influenza A virus (A/Duck/Shantou/2144/00(H9N2))
[25] = source organism: Dengue virus 4 Philippines/H241/1956
[26] = source organism: Mammarenavirus tacaribeense
[27] = source organism: Dengue virus 4 Dominica/814669/1981
[28] = source organism: Dengue virus 3 Martinique/1243/1999
[29] = source organism: Lassa virus Josiah
[30] = source organism: Lymphocytic choriomeningitis virus (strain Armstrong)
[31] = source organism: Mammarenavirus brazilense

## LATGPLTTLW
[1]; [19]
  Kd: 98.4 nM

## LLQMENKAWL
[2]; source organism: Dengue virus 2 16681-PDK53
  Kd: 280 nM

## SPLSKCVVV
[2]; [20]
  Kd: 30.9 nM

## AEAAGCSMI
[3]; [21]
  Kd: ≥ 20000 nM
[4]; [21]
  Kd: 4.5 nM

## NEVEVITKL
[3]; source organism: West Nile virus
  Kd: 6.3 nM

## VRQMEGEGVL
[2]; source organism: Dengue virus 3 Sri Lanka/1266/2000
  Kd: 1710 nM

## GIFMTATPPG
[5]; [22]
  Kd: 1220 nM

## ASAHVRQSEY
[6]; [23]
  Kd: 4.53 nM
[7]; [23]
  Kd: 5.79 nM
[8]; [23]
  Kd: 102 nM
[5]; [23]
  Kd: 2730 nM
[9]; [23]
  Kd: ≥ 24700 nM
[10]; [23]
  Kd: 827 nM

## GEETIEERF
[3]; [24]
  Kd: 3380 nM
[11]
  Kd: ≥ 20000 nM
[4]; [24]
  Kd: 134 nM

## MVKPKGKVV
[2]; [25]
  Kd: 44.6 nM

## MGLGKGWPL
[2]; [22]
  Kd: 8.72 nM

## KTDFSNIRA
[5]; source organism: Vaccinia virus Copenhagen
  Kd: 209 nM

## FPRSMLSIF
[2]; [20]
  Kd: 9.88 nM

## KYSRSKPAA
[5]; [20]
  Kd: 5.71 nM

## RLKTRIRNL
[2]; [20]
  Kd: 0.694 nM

## KITAEWLWK
[12]
  Kd: 99.4 nM
[5]; [22]
  Kd: 536 nM
[13]
  Kd: 1440 nM

## ALLSRFFNM
[2]; [20]
  Kd: 2.96 nM

## LMLVALLGAM
[2]; [25]
  Kd: 7190 nM

## FVAAALHNV
[6]; [26]
  Kd: ≥ 20500 nM
[7]; [26]
  Kd: ≥ 76900 nM
[8]; [26]
  Kd: 13500 nM
[5]; [26]
  Kd: 6100 nM
[9]; [26]
  Kd: 2540 nM
[10]; [26]
  Kd: ≥ 77800 nM

## RMVMTTTANW
[14]; [25]
  Kd: 52.8 nM
[1]; [25]
  Kd: 20.5 nM

## ASRRSWPLN
[5]; [27]
  Kd: 50.2 nM

## LTEIASLPTY
[6]; [25]
  Kd: 1.39 nM
[7]; [25]
  Kd: 226 nM
[5]; [25]
  Kd: 9340 nM
[9]; [25]
  Kd: 899 nM

## TTRNGEPHM
[5]; [22]
  Kd: 1200 nM

## IELEHLRGL
[3]; source organism: Giardia lamblia ATCC 50803
  Kd: 10 nM

## LATGPITTLW
[1]; [28]
  Kd: 78.6 nM

## DCIMTSYQYL
[6]; [29]
  Kd: 3860 nM
[7]; [29]
  Kd: 10400 nM
[8]; [29]
  Kd: 14200 nM
[5]; [29]
  Kd: 4430 nM
[15]; [29]
  Kd: 2310 nM
[14]; [29]
  Kd: 5330 nM
[9]; [29]
  Kd: 12600 nM
[10]; [29]
  Kd: 3040 nM

## GPDIYKGVY
[6]; [30]
  Kd: ≥ 32200 nM
[7]; [30]
  Kd: 1820 nM
[8]; [30]
  Kd: 2470 nM
[5]; [30]
  Kd: ≥ 66200 nM
[15]; [30]
  Kd: ≥ 77500 nM
[14]; [30]
  Kd: ≥ 77700 nM
[9]; [30]
  Kd: ≥ 77900 nM
[10]; [30]
  Kd: ≥ 77800 nM

## LKGMSYAMCL
[2]; source organism: Dengue virus 3 Singapore/8120/1995
  Kd: 438 nM

## DTVTYKCPLL
[5]; [27]
  Kd: 3080 nM

## QYIFTGQPLN
[5]; [28]
  Kd: 8840 nM

## MIDNQKLSY
[6]; [31]
  Kd: 9.61 nM
[7]; [31]
  Kd: 843 nM
[8]; [31]
  Kd: 106 nM
[5]; [31]
  Kd: ≥ 34600 nM
[9]; [31]
  Kd: ≥ 34700 nM
[10]; [31]
  Kd: ≥ 61200 nM

## EHYVRITGL
[16]
  Kd: ≥ 24300 nM
[17]
  Kd: ≥ 46900 nM
[18]
  Kd: 3530 nM

## NPSFKRQII
[2]; [20]
  Kd: 19.5 nM

## FPQSNAVIQ
[1]; [19]
  Kd: 527 nM
